Legend:
[1] = biological target: human neutrophil elastase (HNE) (human) (UniProt P08246); assay: cell-based or functional assay
[2] = biological target: human plasma kallikrein (PK) (human) (UniProt P03952); assay: cell-based or functional assay
Chain of human plasma kallikrein (PK) (human) (P03952 20-638 limits assumed): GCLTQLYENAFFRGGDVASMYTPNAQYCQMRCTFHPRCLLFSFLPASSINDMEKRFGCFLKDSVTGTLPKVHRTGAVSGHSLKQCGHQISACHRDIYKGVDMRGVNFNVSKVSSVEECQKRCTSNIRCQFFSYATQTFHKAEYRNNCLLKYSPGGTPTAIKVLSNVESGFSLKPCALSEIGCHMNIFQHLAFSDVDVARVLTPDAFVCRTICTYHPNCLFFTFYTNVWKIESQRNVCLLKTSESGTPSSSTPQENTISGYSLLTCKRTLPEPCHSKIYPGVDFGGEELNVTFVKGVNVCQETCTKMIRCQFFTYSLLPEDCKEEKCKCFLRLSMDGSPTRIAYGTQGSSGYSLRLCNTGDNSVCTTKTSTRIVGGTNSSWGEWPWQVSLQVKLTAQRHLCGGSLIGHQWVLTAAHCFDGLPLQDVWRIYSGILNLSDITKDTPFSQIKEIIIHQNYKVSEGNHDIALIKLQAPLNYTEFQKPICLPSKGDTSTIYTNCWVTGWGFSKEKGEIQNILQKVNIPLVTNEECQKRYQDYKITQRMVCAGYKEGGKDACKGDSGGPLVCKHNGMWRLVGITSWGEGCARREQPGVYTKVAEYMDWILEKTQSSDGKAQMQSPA

Chain of human neutrophil elastase (HNE) (human) (P08246 30-247 limits assumed): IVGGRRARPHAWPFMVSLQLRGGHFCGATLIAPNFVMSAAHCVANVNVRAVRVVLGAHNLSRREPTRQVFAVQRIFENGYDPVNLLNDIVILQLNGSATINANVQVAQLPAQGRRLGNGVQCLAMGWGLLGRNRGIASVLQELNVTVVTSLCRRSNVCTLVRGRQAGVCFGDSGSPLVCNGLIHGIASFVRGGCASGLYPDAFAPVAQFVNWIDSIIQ

Substance: rACTWT (recombinant wild type alpha-1-antichymotrypsin) (from UniProt P01011 24-423)
- % Inhibition [1]: 26%
- INHIBITION % [1]: 15%
- Percentage inhibition [1]: 16%
- % Inhibition [2]: 46%
- INHIBITION % [2]: 0%
- Percentage inhibition [2]: 46%

— patent US20140341881A1
